Reference: US20180291353A1, “MONOFUNCTIONAL ALDEHYDE AND ALCOHOL DEHYDROGENASES FOR PRODUCTION OF FUELS AND COMMODITY CHEMICALS” (The Regents of the University of California, priority 2015, published 2018)

Tests used:
[1] = substrate: CC(=O)SCCNC(=O)CCNC(=O)[C@H](O)C(C)(C)COP(=O)(O)OP(=O)(O)OC[C@H]1O[C@@H](n2cnc3c(N)ncnc32)[C@H](O)[C@@H]1OP(=O)(O)O; assay: purified protein, by the assay type; details: other: 100 μM NADH, 100 mM Tris, 1 mM DTT, pH 7.5, 30° C., mean±s.e. (n=3)
[2] = substrate: CCCC(=O)SCCNC(=O)CCNC(=O)[C@H](O)C(C)(C)COP(=O)(O)OP(=O)(O)OC[C@H]1O[C@@H](n2cnc3c(N)ncnc32)[C@H](O)[C@@H]1OP(=O)(O)O; assay: purified protein, by the assay type; details: other: 100 μM NADH, 100 mM Tris, 1 mM DTT, pH 7.5, 30° C., mean±s.e. (n=3)
[3] = test system: butanediol and hydroxybutanone production pathway; assay: Screen of secondary alcohol dehydrogenases in the aldh7-adh2 pathway in E. coli (FIG. 15-17); assay type: cell-based; details: in words; pathway with aldh7-adh2 and acetoacetyl-CoA reductase
Source text: FIG. 16 illustrates the results of a screen of secondary alcohol dehydrogenases when expressed in the pathway described in FIG. 15. The production titers of 4-hydroxy-2-butanone (hydroxybutanone) and 1,3-butanediol (butanediol) when the illustrated secondary alcohol dehydrogenases are expressed in the pathway illustrated in FIG. 15 are shown. Data are mean±s.d. (n=3).
FIG. 17 illustrates how expression of specific proteins in the pathway described in FIG. 15 can control butanediol:hydroxybutanone ratios through pathway design. The production titers of 4-hydroxy-2-butanone (hydroxybutanone) and 1,3-butanediol (butanediol) when the illustrated proteins are expressed in the pathway illustrated in FIG. 15 are shown. Data are mean±s.d. (n=3).
Unless otherwise described, applicable materials and methods as described in this Example are analogous to those described in Example 1.
At least four SADHs enabled butanediol production of 2 g/L with hydroxybutanone production limited to 250 mg/L or less (FIG. 16). This pathway design appears preferable to enforcing specificity through an ADH that will not accept acetoacetaldehyde; acetoacetaldehyde need not be a dead end product and can still be channeled to butanediol production.

[4] = ALDH7 activity toward substrates; assay type: biochemical; details: in words
[5] = test system: butanol production pathway; assay: Butanol and ethanol production in E. coli MC1.24 (quintuple KO) with bifunctional or monofunctional dehydrogenases (FIG. 5); assay type: cell-based; details: E. coli MC1.24, FIG. 5
Source text: FIG. 5 illustrates genetically engineered improvement of a butanol production pathway composed of monofunctional aldehyde and alcohol dehydrogenases. The fuel titer of either butanol or ethanol in E. coli cells expressing the biosynthetic pathway shown in FIG. 6A with various particular alcohol and/or aldehyde dehydrogenases is shown. Specifically, E. coli MC1.24 (quintuple KO) was transformed with pT533-phaA.HBD, pBBR2-aceE.F.lpd and 1: pCWO.trc-ter-adhE2, 2: pCDF3-aldh16, 3: pCWori-ter-aldh16.CaADH, or 4: pCWO.trc-ter-aldh16.CaADH as indicated.
. The cultures were grown at 37° C. in a rotary shaker (200 r.p.m.) and induced with IPTG (1.0 mM) at OD600=0.35-0.45. At this time, the growth temperature was reduced to 30° C., and the culture flasks were sealed with Parafilm M (Pechiney Plastic Packaging) to prevent product evaporation for aerobic cultures. Anaerobic cultures were sealed and the headspace was sparged with argon for 5 minutes immediately follow induction. Aerobic cultures were unsealed for 10 to 30 min every 24 h then resealed with Parafilm M, and additional glucose (1% (w/v)) was added 1 day post-induction. Samples were quantified after 3 d of cell culture.
Samples (2 ml) were removed from cell culture and cleared of biomass by centrifugation at 20,817 g for 2 min using an Eppendorf 5417R centrifuge. The supernatant or cleared medium sample was then mixed in a 9:1 ratio with an aqueous solution containing the isobutanol internal standard (10,000 mg l^−1). These samples were then analyzed on a Trace GC Ultra (Thermo Scientific) using an HP-5MS column (0.25 mm×30 m, 0.25 μM film thickness, J & W Scientific). The oven program was as follows: 75° C. for 3 min, ramp to 300° C. at 45° C. min^−1, 300° C. for 1 min. n-Butanol was quantified by flame ionization detection (FID) (flow: 350 ml min^−1 air, 35 ml min^−1 H2 and 30 ml min^−1 helium). Samples containing n-butanol levels below 500 mg 1^−1 were requantified after extraction of the cleared medium sample or standard (500 μl) with toluene (500 μl) containing the isobutanol internal standard (100 mg 1^−1) using a Digital Vortex Mixer (Fisher) for 5 min set at 2,000. The organic layer was then quantified using the same GC parameters with a DSQII single-quadrupole mass spectrometer (Thermo Scientific) using single-ion monitoring (m/z 41 and 56) concurrent with full scan mode (m/z 35-80). Samples were quantified relative to a standard curve of 2, 4, 8, 16, 31, 63, 125, 250, 500 mg 1^−1 n-butanol for MS detection or 125, 250, 500, 1,000, 2,000, 4,000, 8,000 mg 1^−1 n-butanol for FID detection. Standard curves were prepared freshly during each run and normalized for injection volume using the internal isobutanol standard (100 or 1,000 mg 1^−1 for MS and FID, respectively). […]

[6] = test system: n-butanol biosynthetic pathway; assay: Butanol and ethanol fuel titer in E. coli DH1 expressing the n-butanol pathway with AdhE2 variants or homologs (FIG. 2, FIG. 3); assay type: cell-based; details: E. coli DH1, compared with WT AdhE2
Source text: The fuel titer of butanol in E. coli cells expressing the biosynthetic pathway shown in FIG. 6A with various particular AdhE2 variants incorporating amino acid substitutions from the AdhE2 superfamily is shown. The x-axis labels indicate the particular AdhE2 variant being expressed in the E. coli, with wild-type AdhE2 also shown for comparison. In each figure, E. coli DH1 was transformed with pT5T33-phaA.HBD-crt and pCDF3-ter-AdhE2 variant as indicated. FIG. 2A illustrates the butanol production for AdhE2 variants #76930 to #76978. FIG. 2B illustrates the butanol production for AdhE2 variants #76979 to #77025, and also includes WT AdhE2 (GI 499193180). AdhE2 and variants thereof shown in FIG. 2A and FIG. 2B include SEQ ID NOs: 60-154. […]
. […] Samples were quantified after 3 d of cell culture.
Samples (2 ml) were removed from cell culture and cleared of biomass by centrifugation at 20,817 g for 2 min using an Eppendorf 5417R centrifuge. […] These samples were then analyzed on a Trace GC Ultra (Thermo Scientific) using an HP-5MS column (0.25 mm×30 m, 0.25 μM film thickness, J & W Scientific). The oven program was as follows: 75° C. for 3 min, ramp to 300° C. at 45° C. min^−1, 300° C. for 1 min. n-Butanol was quantified by flame ionization detection (FID) (flow: 350 ml min^−1 air, 35 ml min^−1 H2 and 30 ml min^−1 helium). […]

B1: AdhE2-ALDH (aldehyde dehydrogenase domain of bifunctional AdhE2, wild type, GI 499193180, SEQ ID NO: 41) (Clostridium acetobutylicum) (protein)
chain: MKVTNQKELKQKLNELREAQKKFATYTQEQVDKIFKQCAIAAAKERINLAKLAVEETGIGLVEDKIIKNHFAAEYIYNKYKNEKTCGIIDHDDSLGITKVAEPIGIVAAIVPTTNPTSTAIFKSLISLKTRNAIFFSPHPRAKKSTIAAAKLILDAAVKAGAPKNIIGWIDEPSIELSQDLMSEADIILATGGPSMVKAAYSSGKPAIGVGAGNTPAIIDESADIDMAVSSIILSKTYDNGVICASEQSILVMNSIYEKVKEEFVKRGSYILNQNEIAKIKETMFKNGAINADIVGKSAYIIAKMAGIEVPQTTKILIGEVQSVEKSELFSHEKLSPVLAMYKVKDFDEALKKAQRLIELGGSGHTSSLYIDSQNNKDKVKEFGLAMKTSRTFINMPSSQGASGDLYNFAIAPSFTLGCGTWGGNSVSQNVEPKHLLNIKSVAERRENMLWFKVPQKIYFKYGCLRFALKELKDMNKKRAFIVTDKDLFKLGYVNKITKVLDEIDIKYSIFTDIKSDPTIDSVKKGAKEMLNFEPDTIISIGGGSPMDAAKVMHLLYEYPEAEIENLAINFMDIRKRICNFPKLGTKAISVAIPTTAGTGSEATPFAVITNDETGMKYPLTSYELTPNMAIIDTELMLNMPRKLTAATGIDALVHAIEAYVSVMATDYTDELALRAIKMIFKYLPRAYKNGTNDIEAREKMAHASNIAGMAFANAFLGVCHSMAHKLGAMHHVPHGIACAVLIEEVIKYNATDCPTKQTAFPQYKSPNAKRKYAEIAEYLNLKGTSDTEKVTALIEAISKLKIDLSIPQNISAAGINKKDFYNTLDKMSELAFDDQCTTANPRYPLISELKDIYIKSF
What does the source list for B1?
Km [1]: 100 ± 10 µM; kcat [1]: 1.3 s⁻¹; kcat/Km [1]: 13000 M⁻¹ s⁻¹; Km [2]: 10 ± 1 µM

B2: SADH1: secondary alcohol dehydrogenase from Pichia kudriavzevii (protein, listed as Pichia kudriavzevii)
chain: MFMKGLTYLKPGIVSWQSIPKPVLKKPTDVIGKVVTTTICGSDLHILKGDVPETTALAATTGHGVVLGHEAIIEIESVGDAVKNFSKGDVCIVSCITSCGKCYYCKRNLQSHCTGHMEGTSGWVFGHEIDGTQAEYVRVPCADYGLYKVPEGVAYEKLLMLSDAIPTSYEIGILNGEVKEGDSVAVVGLGPVGLSALLTAINKKPKQLIAIDMDENRLDLAKQLGATHIINSTNMPNEEVAKKVQEISKDLEPGRESGVDVAIECVGVPPTFELCEDLIASGGTIANVGVHGAKVDLKLQELWIKNCKITTGLVSTYSIPDLLNQVADGSLDPSPIITHHFKFDEFEKAYQVFKDAKNTKAMKIILTP
With B2 as the molecule, how does the butanediol titer [3] read?
Its butanediol titer is “maximum butanediol titer”.

B3: ALDH7: monofunctional aldehyde dehydrogenase (protein, listed as Clostridium botulinum)
chain: MERNLSVLSQTNDLKITKRTEGDKSNNKESYLGVFKKVENAITKAIYAQKKLSLYYTKEDRERIIKSIRKATLENKEILAKMIVDETHMGRYEDKILKHELVAKYTPGTEDLITTAWSGDQGLTLVEMSPYGVIGAITPSTNPTETVICNSIGMIAAGDSVVFNGHPGAKKCVAFAVDMINKAVIREGGPENLVTTVENPTMESLNVIMKHPYIKLLCGTGGPGLIKTLLNSGKKAIGAGAGNPPVIVDDSADIDKAAKNIIEGCSFDNNLPCIAEKEVFVFENVANDLIQNMIKNNAVLINENQVSKLLDLVLLERKDETLEYAINKKWVGKDAKLFLDKIGIKASDNVRCIICEVDANHPFVMTELMMPILPIVRVKDVDEAIECAKTAEQRKRHSAYMYSKNIDNLNRFEKEIDTTIFVKNAKSFAGVGFGAEGFTTFTIAGPTGEGITSARNFTRQRRCVLAG
With B3 as the molecule, how does the “activity toward substrates including acetoacetyl-CoA and 3-hydroxybutyryl-CoA” value [4] read?
The value was “displays activity”.

B4: ALDH16: monofunctional aldehyde dehydrogenase specific for C4 substrates (protein, listed as Clostridium beijerinckii)
chain: MNKDTLIPTTKDLKVKTNGENINLKNYKDNSSCFGVFENVENAISSAVHAQKILSLHYTKEQREKIITEIRKAALQNKEVLATMILEETHMGRYEDKILKHELVAKYTPGTEDLTTTAWSGDNGLTVVEMSPYGVIGAITPSTNPTETVICNSIGMIAAGNAVVFNGHPCAKKCVAFAVEMINKAIISCGGPENLVTTIKNPTMESLDAIIKHPSIKLLCGTGGPGMVKTLLNSGKKAIGAGAGNPPVIVDDTADIEKAGRSIIEGCSFDNNLPCIAEKEVFVFENVADDLISNMLKNNAVIINEDQVSKLIDLVLQKNNETQEYFINKKWVGKDAKLFLDEIDVESPSNVKCIICEVNANHPFVMTELMMPILPIVRVKDIDEAIKYAKIAEQNRKHSAYIYSKNIDNLNRFEREIDTTIFVKNAKSFAGVGYEAEGFTTFTIAGSTGEGITSARNFTRQRRCVLAG
Which results are given for B4?
butanol production [5]: 1 g/L; ethanol production [5]: 0.5 g/L; butanol:ethanol ratio [6]: favorable
